{"source": "paper PMC4528709", "about": "“Determinants in HIV-2 Env and tetherin required for functional interaction” (Retrovirology, 2015)", "binders": {"B1": {"name": "tetherin/BST-2 (natural protein)", "chain": "MASTSYDYCRVPMEDGDKRCKLLLGIGILVLLIIVILGVPLIIFTIKANSEACRDGLRAVMECRNVTHLLQQELTEAQKGFQDVEAQAATCNHTVMALMASLDAEKAQGQKKVEELEGEITTLNHKLQDASAEVERLRRENQVLSVRIADKKYYPSSQDSS", "notes": "tetherin/BST-2, human; untagged expression plasmid described in earlier work [20, 29, 38]; also called wild-type tetherin; source: 293T, co-transfected (200 ng plasmid), in lysate"}}, "biological_target": "T1, GFP-tagged ROD10 Env_(Y707A) (HIV-2 (strain ROD10), UniProt P04577 20-858, Y707A)", "T1 construct": "Env protein of HIV-2 strain ROD10 with a point mutation that disrupts an endocytosis motif in the cytoplasmic tail (pROD10_(Y707A) Env); also called Y707A mutant; source: 293T, co-transfected (2 ug plasmid), in lysate; not shown: eGFP, C-terminal, kept", "T1 sequence (looked up)": "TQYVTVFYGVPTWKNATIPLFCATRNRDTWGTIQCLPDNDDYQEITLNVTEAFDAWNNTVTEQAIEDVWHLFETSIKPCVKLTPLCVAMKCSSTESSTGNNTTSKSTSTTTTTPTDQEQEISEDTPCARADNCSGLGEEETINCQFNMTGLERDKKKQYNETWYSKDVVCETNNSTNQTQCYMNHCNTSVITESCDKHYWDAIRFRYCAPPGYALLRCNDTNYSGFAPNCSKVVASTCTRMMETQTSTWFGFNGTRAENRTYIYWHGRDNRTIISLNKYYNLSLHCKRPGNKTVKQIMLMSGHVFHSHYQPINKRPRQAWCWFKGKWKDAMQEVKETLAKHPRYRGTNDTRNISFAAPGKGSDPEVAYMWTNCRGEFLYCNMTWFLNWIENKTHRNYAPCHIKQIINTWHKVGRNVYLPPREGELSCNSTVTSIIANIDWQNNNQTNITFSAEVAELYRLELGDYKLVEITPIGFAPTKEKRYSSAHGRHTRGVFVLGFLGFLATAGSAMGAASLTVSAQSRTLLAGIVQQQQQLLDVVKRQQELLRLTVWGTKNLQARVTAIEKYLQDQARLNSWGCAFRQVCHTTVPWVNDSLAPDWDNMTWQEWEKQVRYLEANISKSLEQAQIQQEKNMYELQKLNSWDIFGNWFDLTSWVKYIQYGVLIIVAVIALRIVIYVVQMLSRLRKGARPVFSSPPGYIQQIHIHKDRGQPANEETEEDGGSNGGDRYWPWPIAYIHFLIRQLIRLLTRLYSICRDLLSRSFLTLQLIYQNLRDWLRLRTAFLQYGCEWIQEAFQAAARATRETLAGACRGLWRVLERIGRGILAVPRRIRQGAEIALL", "experiment": "co-IP; quantification of tetherin immunoprecipitated by GFP-tagged Env, corrected for the cellular level of the Env protein, n = 3 experiments, data not shown", "conditions": "partners not purified", "data": [{"binder": "B1", "values": [{"measurement": "efficiency at immunoprecipitating tetherin relative to the WT ROD10 Env", "result": 67, "unit": "%"}]}]}
